Test results as given in the domain aggregation screens of Martell et al. (2025).

Test: soluble fraction after stress (log2 fold change); higher = more stays soluble; pooled small domains, quantitative proteomics
Settings: stress: 50 degC
How it was run: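 Quantitative proteomics served as the high-throughput read-out for pooled custom libraries of small protein domains. Each was stressed at 50°C. Aggregation propensity is expressed as the base-two log fold change in soluble protein after stress. A higher value means a larger share of the protein remains in solution.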

For “HMTKQRSAIMNLLAERNTPLTAEEIGEAIAPSYPKLALSTVYRNLELFTNAGLLEKSFFQDGITRYSLTK”, which “soluble fraction (log2)” value is on record?
The value was -0.429.

Which “soluble fraction (log2)” value does the source give for “HMEVENAQLLARLTPQEHRVFERVVAGLSNREIGSEMDISIKTVEVHRARVMRKLEANSVAELVRFHIHN” here?
The value was -2.25.

Which “soluble fraction (log2)” value does the source give for “HMDIYLDEVNRKILHLLSQGIKTRSLREYINLSMSAIEKRKKHMKELFLVEDGKDETLLNEARNKGF” here?
Its value is -1.43.

For “HMEGYLYLSESQNELILKNLKTPLKYNLYNASGKLIKKGNIKNTLDISELPKGVYIFTSSDNSFSKKFLKT”, which “soluble fraction (log2)” value is on record?
The value was -0.0444.

For “HMVRSKLEIVPVPEDAVVKIAGLKRLTYQAYQNEDVPYMVYKNGYEAQSGTVFMDTDKTLTVTLEESP”, which “soluble fraction (log2)” value is on record?
Its value is -0.0311.

Which “soluble fraction (log2)” value does the source give for “HMDPNFKYIIRIANSDVSGEQKLAYALTSIRGIGERTSNAIIQKLGLDSTQLAGKLTDKNVEDIESA” here?
Its value is -0.027.

For “HMEDSHIYPVSFNGKMRFKLELPVSMNKKEIEEVVLQHEDAQKWLNGQNPKKVIVVPKRIINIV”, which “soluble fraction (log2)” value is on record?
Its value is 0.0081.

With “HMSDYKSALQEAVQTNKQSIEYVLIKESGPAHNKTFTFEVRIDNISYGVGTAKSKKEAEQIAAKDALDKLV” as the sequence, how does the “soluble fraction (log2)” value read?
Its value is -0.0635.

Which “soluble fraction (log2)” value does the source give for “HMIEYYDDEELDVFKGRQSDNYTNKEIEQFAEVLHTMRQDEVKGWNRSLILRSINLPDSLKDEVIMLI” here?
Its value is -0.672.

For “HMRAGHDFEALKHIESSLDKHLTDEGIKIKSEKRGAIVARWYQSHVEGREVTDDDVHTWIELFF”, which “soluble fraction (log2)” value is on record?
The value was -3.5.

With “HMPESETIMVDVKGAVQSEGVYELPSTARVNDAIEAAGGFSDQADKKSVNLAQKLSDEAVVYVASQGENV” as the sequence, how does the “soluble fraction (log2)” value read?
The value was 0.207.

With “HMYRPLYQQVYDFLVKQIAAGEWGPGESLPSEQALAGRLNVSQGTVRKALDALAADSLIDRRQGKGTYVAE” as the sequence, how does the “soluble fraction (log2)” value read?
Its value is -0.0221.

With “HMVSTDPVHLFNLGTANRRAGRASEAITSYRKFMEAAPQHPQVPEARAYIHDMEVLLQERQKSEQAASQLS” as the sequence, how does the “soluble fraction (log2)” value read?
The value was 0.0843.

Which “soluble fraction (log2)” value does the source give for “HMYSLGPKERSIVSFIANRPGSRSGQIAKSLQIPLPTIKRILNGLVENKVIARHGIGAGTNYVVEDQA” here?
The value was -0.594.

With “HMSDLVATKEQVVEAYKYGLGLGLDNSTLKMLLFDIRGEDVADQDKISDGMTVSEIEIWKEGMRTIAEEYL” as the sequence, how does the “soluble fraction (log2)” value read?
Its value is -0.508.

With “HMRHLSVPSQDTQQVLQRLKVELALPEGARVRSDPSDPGRRLIPFTESVPQEMIDQYPVVSINI” as the sequence, how does the “soluble fraction (log2)” value read?
The value was 0.0489.

With “HMIALKNLREEKRMTQAELSKDLEISPSAIGMYEQGRRVPDVSTLKKISAYFNVSIDYLLGNSTSKDI” as the sequence, how does the “soluble fraction (log2)” value read?
The value was -0.018.

For “HMTTTPAERQRTILRSLNRVDPVSVDALARLTGVSVVTIRRDLSDLASRDLIRRVHGGALLPTR”, which “soluble fraction (log2)” value is on record?
Its value is -0.917.

For “HMTSLAEQAYRHIRDKLSNGAFVPGEQLVNRVLATEIGVSVIPVREAINRLATEGLVKHVPGSGAFVRQ”, which “soluble fraction (log2)” value is on record?
Its value is 0.0904.

For “HMHTDDDGITEAFPHLRLLSLGEDILDLLEKSRFIRKLNNELVYYVVDFREQNSIDGRRYHPSIYHNL”, which “soluble fraction (log2)” value is on record?
The value was -0.258.

For “HMGNIALAIARFREMIAEDPNLQPVRLHLAMALMADHQDEAARGQLEKLRSDQLPDDIRKIVDDALAALR”, which “soluble fraction (log2)” value is on record?
The value was -1.13.

Which “soluble fraction (log2)” value does the source give for “HMAGDDEIEKIAQDILAAWPDKVAAYQAGNKGLMGLFMGELMKKSQGKANPKVASGIIQKLLD” here?
The value was 0.0445.

With “HMNRYPIQTEVHAFNDDIIKEAINFEMSRGGQIFFVNNRIPQLYELENTIHRLVPDARVVIGHGQMP” as the sequence, how does the “soluble fraction (log2)” value read?
The value was -0.188.

Which “soluble fraction (log2)” value does the source give for “HMDTITMAGERYAVSDLEKVSGDIFEKAFGFEIDPKTADAKDVLPTMPKSDVDLFKKLSGIKP” here?
The value was 0.19.

With “HMKKIFIDAPLDTMITIPKDTTHHLLTVFRHKMEKPVLVGGSDGRTGVYQIQDVVDGEASAKLVGDIQ” as the sequence, how does the “soluble fraction (log2)” value read?
Its value is 0.514.

For “HMPPRFVPATGADLRRWLDVSGLTAEAAGDLLGVSGARFRQWLSRYRSAPLPDPVRALLVALLRP”, which “soluble fraction (log2)” value is on record?
The value was -0.155.

With “HMTPTRQATVSVAALNVREQPSLQGRRLGKLTQGTTLTVVGPPGEWLKIEYKGETGFVYASYTSLG” as the sequence, how does the “soluble fraction (log2)” value read?
Its value is -1.59.

With “HMNIVINVDTPTFEQMKATYQAPGTLPAGASFHAKLKGVTVTGYTKSHKVMFQGALANQEAARWQ” as the sequence, how does the “soluble fraction (log2)” value read?
The value was -0.92.

Which “soluble fraction (log2)” value does the source give for “HMQQLDDDTVAYVADNGIAVKSKNGKELSVDTSGLSYDIIMDMFRNLPRNGDFFSSKYWSDNIQKAQAR” here?
Its value is 0.41.

For “HMAAPLTDRETEVLTLLARGLINKQIAEELHIGLTTVITHRRNIMEKLRVRSLAELILRAVAAGYVDAGR”, which “soluble fraction (log2)” value is on record?
Its value is -1.77.

For “HMNQADNFNSLTKREKDVLLLVTQGESNKSIADKLVLSEVTVKSHLNSIFKKLNVTNRTQAVLVAMQMNLV”, which “soluble fraction (log2)” value is on record?
Its value is 0.03.

With “HMSSVHTMEVKSTTQIKVLDENKNLSSYYSMKNPVSFNYRLFFLNQDELKKLQEDLKTNNDIQSIDIKYA” as the sequence, how does the “soluble fraction (log2)” value read?
The value was -0.753.

For “HMPNQLLELVEMEIRDLLNEYEFPGDDTPIIQGSALKALEDPMGPWGDKIMDLMDAVDSYIPDPE”, which “soluble fraction (log2)” value is on record?
Its value is -0.581.

Which “soluble fraction (log2)” value does the source give for “HMGQKDYKTRLQEYFAKQGLKVNYEDTSHGPDHNKNFSTDVFLDGKIIGSGIGKSKKSSQQSAAKDALNIL” here?
Its value is 0.338.

With “HMIDAKTTLQELTQKSGKKPEYRLIKIEGPDHLRRFTVEVFIDGQSMGTGTGHSKKEAEQNAANFALKNLQ” as the sequence, how does the “soluble fraction (log2)” value read?
Its value is 0.0235.

Which “soluble fraction (log2)” value does the source give for “HMEYELYALKEEVLKRLTREDRELLILLFEERRTIHAVAQRLGLSDSAVYKRRTQLVNKVKVIASMLM” here?
Its value is -2.13.

With “HMKSLPQKLLAYLESQGLTRDEAGEFVKQGLKITSNDVDQIQLLLANTEVIDIKLQEFIAQK” as the sequence, how does the “soluble fraction (log2)” value read?
Its value is 0.217.

For “HMTISAQAITPRLEVIKNFVLMEEWDAAQTQLEKLRSFTEIWSLDPLFSAMKKKDGQKISDWITGFIKDNM”, which “soluble fraction (log2)” value is on record?
The value was -1.15.

Which “soluble fraction (log2)” value does the source give for “HMAVSTFGRITASSLNVRSGPSTDHEKVGSLAAGRVVELLEESDGWYRIENGYISTEYVTIVDPSQ” here?
Its value is -0.355.

Which “soluble fraction (log2)” value does the source give for “HMGGRRHANMSREEEAAFLAPFFEKAAQGGILVVREIRQALDAHLGRTVPLSTVYNLLHRHNWRKL” here?
Its value is -2.71.

Which “soluble fraction (log2)” value does the source give for “HMERPEVVAYRLAYASAESLRPALGLVASPSDLEIDERTNTLIVRAVPSVQERVAELVASLDI” here?
The value was -0.237.

With “HMKRKAIDQSWQPDKEAIEILSKAGVNEEFIKEEIPEFILYWSEKGEESDTWNSKFIAQVRRQWAKTQH” as the sequence, how does the “soluble fraction (log2)” value read?
Its value is -0.0567.

With “HMSDDIPVHYRLDVNDAARALKLLTDNGFSAETAESGLNVYMTRLQSAEAARLLVENNIAVYGLTAV” as the sequence, how does the “soluble fraction (log2)” value read?
The value was 0.0267.

For “HMAQSEDLMVMAQRILGGPEAQSFFQAEATRQGLAGFLPEPIPDFLQRLERKLSGSVGSATAHAMVAQTMG”, which “soluble fraction (log2)” value is on record?
The value was -0.179.

Which “soluble fraction (log2)” value does the source give for “HMNMVSGHLQVKKGYYYAVLSFYDSKNKRHVKYISTGLPEKGNKRKAEAELVKIRNAFEPPAE” here?
Its value is -0.338.

With “HMSDSLVLTGVAYVDGKPVVTLFDKVKKESLVVTDQPNLKGWTLVEATQSSDIKRATAKVNIGGEPVSIRY” as the sequence, how does the “soluble fraction (log2)” value read?
Its value is 0.117.

With “HMEGSVTVMVNGESVTMTGKQNYIFVDVFDWYSFDLSAGKGRAIATLVNGKEAEFSQPLANGDNIELYWKE” as the sequence, how does the “soluble fraction (log2)” value read?
The value was -0.118.

With “HMENDGQFLRAEREKYGLTLTDIYEHTHIPIKKLKAYEMWEEEMPPRTRALLELYFDQVAFEYDS” as the sequence, how does the “soluble fraction (log2)” value read?
The value was -0.8.

Which “soluble fraction (log2)” value does the source give for “HMTVAQEIEARRATIRSSDPAEMARFIRWLIMEGHTEPAADELKKYAENFPEASATTKQLQALLAAR” here?
The value was -0.177.

For “HMALIGSNLRHLRNERKLSQQELADLIRVGRTTIANIEANLANPGHKTLLEIVKVFDITIDELLHTDLTK”, which “soluble fraction (log2)” value is on record?
The value was -0.886.

For “HMNVYEVKFGDTLDEIIKTYLFDIPVKKSILRQAVILANPHAFRRNNPHWMYSDRQLKLPELQDIRRAIF”, which “soluble fraction (log2)” value is on record?
Its value is -0.276.

With “HMQERQREGFVQQLRGKYSGQVVMRLFPELQGKALGEFMRKFEAQWEDHEAVLAAMEAHEIESRLKVFK” as the sequence, how does the “soluble fraction (log2)” value read?
The value was -0.965.

Which “soluble fraction (log2)” value does the source give for “HMFKITNTLNKTAEVYLTIPENKKGKGKIMISVNGAFHELEAMTENDKIQSGAVVKVVRIENDNILIVET” here?
The value was -1.88.

With “HMPSEQGANKARDIIFRHHMKVDVWVGSWENARNYAEQAIKQGVKVIISRGGTAALLRHSLDTAIIKVR” as the sequence, how does the “soluble fraction (log2)” value read?
The value was 0.0222.

Which “soluble fraction (log2)” value does the source give for “HMLDSGNPILPYKLSLLANVDIRTVRNAISAGELVAFKSEFDGEVYVENGSARRWLHGRRGFKPTLK” here?
Its value is -0.84.
